Reference: patent US6090911
One block for each binder: values may come before it.

Columns and labels:
[1] = target: A1 acidic leucine zipper protein; test: urea denaturation followed by CD at 222 nm; difference in the free energies of unfolding at 50% unfolded
[2] = target: T1, B1 basic leucine zipper protein; test: urea denaturation of the equimolar mixture followed by CD at 222 nm; difference in the free energies of unfolding at 50% unfolded
T1 sequence: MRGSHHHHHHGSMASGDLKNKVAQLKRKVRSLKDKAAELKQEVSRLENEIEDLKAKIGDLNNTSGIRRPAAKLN

[3] = target: A1 acidic leucine zipper protein; test: urea denaturation followed by CD at 222 nm, two-state model; ΔGu from lnKd,u (dissociation of the dimers) extrapolated to zero denaturant
[4] = target: A1 acidic leucine zipper protein; test: analytical ultracentrifugation of protein solutions (24 to 220 µM); self-association of A1 dimers to tetramers; 95% confidence limits printed as (50-112)
[5] = target: T1, B1 basic leucine zipper protein; test: urea denaturation of the equimolar mixture followed by CD at 222 nm, two-state model; ΔGu from lnKd,u (dissociation of the dimers) extrapolated to zero denaturant
[6] = target: T1, B1 basic leucine zipper protein; test: urea denaturation followed by CD at 222 nm; difference in the free energies of unfolding at 50% unfolded
[7] = target: T1, B1 basic leucine zipper protein; test: urea denaturation followed by CD at 222 nm, two-state model; ΔGu from lnKd,u (dissociation of the dimers) extrapolated to zero denaturant
[8] = target: T1, B1 basic leucine zipper protein; test: analytical ultracentrifugation of protein solutions (24 to 220 µM); self-association of B1 dimers to tetramers; 95% confidence limits printed as (1-6)

ΔΔGu [1]: 0 kcal/mol
ΔΔGu [2]: 2.75 kcal/mol
ΔGu [3]: 11.5 kcal/mol
Dimer-Tetramer Kd [4]: 76 µM
ΔGu [5]: 13.8 kcal/mol
B1: A1 acidic leucine zipper protein (designed binder)
chain: MRGSHHHHHHGSMASGDLENEVAQLEREVRSLEDEAAELEQKVSRLKNEIEDLKAEIGDLNNTSGIRRPAAKLN

ΔΔGu [6]: 0.13 kcal/mol
ΔGu [7]: 12.6 kcal/mol
Dimer-Tetramer Kd [8]: 123 µM
B2: B1 basic leucine zipper protein (designed binder)
chain: T1 sequence
